Assay results: patent publication US6465423 (CENTRAL SYDNEY AREA HEALTH SERVICE, dated 2002)

B1: acid-labile sub-unit (ALS) of insulin like growth factor binding protein complex (other, human, UniProt P35858 28-605, looked up)
chain: ADPGTPGEAEGPACPAACVCSYDDDADELSVFCSSRNLTRLPDGVPGGTQALWLDGNNLSSVPPAAFQNLSSLGFLNLQGGQLGSLEPQALLGLENLCHLHLERNQLRSLALGTFAHTPALASLGLSNNRLSRLEDGLFEGLGSLWDLNLGWNSLAVLPDAAFRGLGSLRELVLAGNRLAYLQPALFSGLAELRELDLSRNALRAIKANVFVQLPRLQKLYLDRNLIAAVAPGAFLGLKALRWLDLSHNRVAGLLEDTFPGLLGLRVLRLSHNAIASLRPRTFKDLHFLEELQLGHNRIRQLAERSFEGLGQLEVLTLDHNQLQEVKAGAFLGLTNVAVMNLSGNCLRNLPEQVFRGLGKLHSLHLEGSCLGRIRPHTFTGLSGLRRLFLKDNGLVGIEEQSLWGLAELLELDLTSNQLTHLPHRLFQGLGKLEYLLLSRNRLAELPADALGPLQRAFWLDVSHNRLEALPNSLLAPLGRLRYLSLRNNSLRTFTPQPPGLERLWLEGNPWDCGCPLKALRDFALQNPSAVPRFVQAICEGDDCQPPAYTYNNITCASPPEVVGLDLRDLSEAHFAPC
modifications: glycoprotein (N-linked carbohydrate); 125I-iodinated (chloramine-T) where used as tracer
notes: mature; 84/86 kDa doublet on SDS-PAGE; In some experiments partially pure ALS or serum fractions (peak B) were used; also called ALS tracer
B2: 28K IGF-binding protein BP-28 (other, human, UniProt P08833 26-259, looked up)
chain: APWQCAPCSAEKLALCPPVSASCSEVTRSAGCGCCPMCALPLGAACGVATARCARGLSCRALPGEQQPLHALTRGQGACVQESDASAPHAAEAGSPESPESTEITEEELLDNFHLMAPSEEDHSILWDAISTYDGSKALHVTNIKKWKEPCRIELYRVVESLAKAQETSGEEISKFYLPNCNKNGFYHSRQCETSMDGEAGLCWCVYPWNGKRIPGSPEIRGDPNCQIYFNVQN
notes: mature; also called purified amniotic fluid BP-28

Tests used:
[1] = biological target: T1, Cross-linked BP-53-IGF-I tracer (covalent complex of BP-53 with [125I]IGF-I) (human, UniProt P17936 28-291; P05019 49-118, 125I-iodinated; cross-linked to BP-53 with disuccinimidyl suberate; glycoprotein; cross-linked to IGF-I with disuccinimidyl suberate); test: routine ALS assay, Superose-12, no serum added
T1 construct: mature; About 60K; Used as tracer in the routine ALS assay; also called covalent BP-53-IGF-I complex; cross-linked tracer
T1 sequence (P17936 28-291, chain 1 of 2): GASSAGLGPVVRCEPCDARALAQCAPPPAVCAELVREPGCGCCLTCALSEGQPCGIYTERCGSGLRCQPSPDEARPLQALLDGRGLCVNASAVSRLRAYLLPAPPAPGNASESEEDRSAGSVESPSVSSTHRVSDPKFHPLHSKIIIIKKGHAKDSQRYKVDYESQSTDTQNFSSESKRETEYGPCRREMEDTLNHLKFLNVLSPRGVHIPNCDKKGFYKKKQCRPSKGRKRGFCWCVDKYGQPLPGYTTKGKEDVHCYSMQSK
T1 sequence (P05019 49-118, chain 2 of 2): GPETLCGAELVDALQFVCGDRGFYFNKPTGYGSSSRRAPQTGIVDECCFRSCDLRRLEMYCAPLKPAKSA
Description: The routine assay for ALS activity was developed, based on the conversion of a covalent BP-53-IGF-I complex of approximately 60K to 150K form in the presence of ALS.
(§1) Samples to be tested for ALS activity were diluted to 200 μL in buffer containing 50 mmol/L sodium phosphate, 0.15 mol/L NaCl, and 0.2 g/L sodium azide, pH 6.5, with 10 g/L bovine albumin. Cross-linked BP-53-IGF-I tracer (~80,000 cpm; 4 ng) was added in 50 μL of the same buffer. After 25–30 min. of incubation at 22° C., 200 μL of the mixture was applied using a V-7 injector valve (Pharmacia) to a Superose-12 gel permeation column eluting at 1.0 mL/min (~2 megapascal pressure) in assay buffer without albumin. The column was calibrated with rabbit immunoglobulin G (Pentex; ~150K), which eluted mainly in fractions 22~24, peaking in fraction 23; BP-53-IGF-I tracer (~60K), which eluted mainly in fractions 25–27, peaking in fraction 26; IGF-I tracer bound to BP-28 (~35K, peaking in fraction 28); and IGF-I tracer (7.5K, peaking in fraction 33). Plotted as log (molecular mass) vs. elution volume, these four markers yielded a linear calibration curve (not shown). As a quantitative index of ALS activity (i.e. the degree of conversion of BP-53 to the 150K complex), the total radioactivity in fractions 22–24 was divided by that in fractions 25–27 to give a 150K/60K ratio. The values of this ratio typically varied between 0.1 and 2.0. […]

[2] = biological target: B1; test: competition with cross-linked BP-53-IGF-I tracer in the routine ALS assay
Description: as §1, with “2.0. The coefficient of variation of the 150K/60K ratio, based on analysis of variance of eight duplicate measurements covering a wide range of values, was 3.2%.” for “2.0.”

| Binder | 150K/60K ratio [1] | binding result [2] |
| --- | --- | --- |
| B1 | ~1 |  |
| B2 |  | no binding (tested: 0.8 µg/mL) |
